According to doi:10.1101/2020.05.05.080093:

Assays:
Assay in all cases: ITC
[1] = target: Odin_LCB_4 TF-Vps4-MIT (Microtubule Interacting and Transport domain of Vps4 of Odinarchaeota_LCB_4) (Odinarchaeota_LCB_4)
[2] = target: Loki_GC14_75 TF-Vps4-MIT (Microtubule Interacting and Transport domain of Vps4 of Lokiarchaeum_GC14_75) (Lokiarchaeum_GC14_75)
[3] = target: Heimdall_LC_3 TF-Vps4-MIT (Microtubule Interacting and Transport domain of Vps4 of Heimdallarchaeota_LC_3) (Heimdallarchaeota_LC_3)

Row | Substance | dH [1] | dH1 (Sequential Binding Sites, first site) [3] | dH2 (Sequential Binding Sites, second site) [3] | other results
1 | Odin_LCB_4 TF-Vps20/32/60 (natural protein) | 331 kcal/mol |  |  | 
2 | Odin_LCB_4 Vps2/24/46 (natural protein) | 392 kcal/mol |  |  | 
3 | Loki_GC14_75 TF-Vps20/32/60 (natural protein) |  |  |  | dH [2]: 1420 kcal/mol
4 | Heimdall_LC_3 TF-Vps20/32/60 (natural protein) |  | 2780 kcal/mol | -2310 kcal/mol | 
5 | Loki_GC14_75 TF-Vps2/24/46 (natural protein) |  |  |  | dH1 (Sequential Binding Sites, first site) [2]: -121 kcal/mol; dH2 (Sequential Binding Sites, second site) [2]: 422 kcal/mol
6 | Heimdall_LC_3 TF-Vps2/24/46 (natural protein) |  | -473 kcal/mol | 931 kcal/mol | 
